Like-named read-outs stand apart in the source and are kept apart here. Where a SMILES comes first, the peptide text is derived from it. Bridges are numbered along the chain shown (N, C = ends). The star is where a group is joined. DOTA = O=C(O)CN1CCN(CC(=O)O)CCN(CC(=O)*)CCN(CC(=O)O)CC1; Ahx = NCCCCCC(=O)O
Legend:
[1] = n-octanol/water partition coefficient (log p); format: physicochemical; settings: shake-flask n-octanol/water; 100 μL radiopeptide in 0.99 mL water + 1 mL n-octanol; vortex 5 min, room temperature; centrifugation 10 min 5000 rpm; radioactivity read-out; mean ± SD (n = 3)
Protocol: A total of 100 μL of the radiolabeled peptide was aliquoted into vials containing 0.99 mL of water and 1 mL of n-octanol, which was then mixed by a vortex mixer (Mabnagene, Tehran, Iran) at room temperature for 5 min. Aqueous and organic layers were separated by centrifugation (10 min, 5000 rpm). Then, 500 μL aliquots of each layer were transferred to the new vials, and the radioactivity of both was measured in a dose calibrator (Capintec CRC®-25, Florham Park, NJ, USA).
The lipid–water partition coefficient for the [^68Ga]Ga-DOTA-Ahx-peptide was estimated in the n-octanol water system, using a […]. Approximately, the log p value was −2.17 ± 0.072, considering the below formula (Equation (2)). The result is reported as mean ± SD (n = 3). […] (2) […]

[2] = test system: 4T1 cells; format: binding, mouse BALB/c
Protocol: (§1) The 4T1 cell line was acquired from the Pasteur Institute of Iran (4T1 is a breast cancer cell line derived from the mammary gland tissue of a mouse BALB/c. (NCBICode: C604/the Pasteur Institute/Tehran/Iran). 4T1 cells are epithelial and can overexpress VEGFRs). The cells were cultured at 37 °C with 5% CO2 in Dulbecco’s modified Eagle’s medium (Gibco, Life Technologies, Carlsbad, CA, USA) supplemented with 10% fetal bovine serum (Gibco) and 1% antibiotics (penicillin and streptomycin). To develop tumor-bearing mice models, Balb/C mice (female, 6–8-week-old, 20–25 g) were purchased from the Institute of Biochemistry and Biophysics (IBB) (University of Tehran, Iran) and kept under the controlled conditions of temperature, humidity, and light/dark cycles with appropriate food and water (approved by the ethics committee of TUMS). Initially, the cells were harvested from the culture flask surface by 10 mM EDTA and centrifuged. After resuspending in serum-free culture medium, 1 × 10^6 cells/100 μL were injected subcutaneously into the right shoulder of mice. In the next 10 days, the tumor size was ready to use for imaging and biodistribution studies with a volume of […] [54].
A competitive binding assay was conducted to determine the value of 50% inhibitory concentration (IC50) for the [^68Ga]Ga-DOTA-Ahx-peptide, using the non-radiolabeled peptide as a competitor. […]

[3] = Ex vivo biodistribution in normal BALB/c mice; settings: mouse, total radioactivity, mean ± SD (n = 3); for tissue uptake / tissue uptake at 0.5 h: iv, 840 kBq; for tissue uptake: healthy tissues, time point not stated; for tissue uptake at 0.5 h: normal mice
Protocol: (§2) The biodistribution of [^68Ga]Ga-DOTA-Ahx-peptide was evaluated in normal and tumor-bearing BALB/c mice. Therefore, 840 kBq in 100 μL saline was injected via the caudal vein of the mice. The animal was euthanized at different time points of 15, 30, 60, and 90 min post-injection using ketamine and xylazine in lethal doses. First, the blood sample was taken from the heart, and then organs (heart, kidney, liver, lungs, etc.) were removed. Tissues were rinsed and weighed, and the radioactivity of each organ was measured using a gamma counter. The organ uptake can be reported as the percentage of injected dose per gram of tissue (ID%/g). A 500-fold excess of DOTA-Ahx-ECRPPDDGLC was used 30 min before radiolabeled peptide injection for the blocking experiment.
Comparative biodistribution studies were conducted in healthy (Figure 7a) and subcutaneously (s.c) tumor-bearing mice (Figure 7b). […] Relatively high uptake was also observed in healthy tissues such as the spleen and intestine (3.7 ± 0.29%ID/g and 5.07 ± 0.21%ID/g, respectively). At 30 min, the highest accumulation of the radioactive compound was measured in the kidneys, which was 9.2 ± 0.53%ID/g and increased over time up to 90 min. Considering kidney uptake, this tracer is excreted mainly from this organ. The distribution profile of the [^68Ga]Ga-DOTA-Ahx-peptide in tumor-bearing mice had some similarity to the normal mice. Kidneys in tumor-bearing mice were also the critical organ with the highest radioactivity concentration at different time points (5.62 ± 0.31%ID/g at 30 min and 6.35 ± 0.54%ID/g at 90 min). This increasing profile has confirmed the quick washing-out of important organs such as the heart, lungs, liver, stomach, and intestine, which had relatively high radioactivity uptake. […] The maximum tumor uptake was 30 min after injection (1.51 ± 0.22%ID/g) and decreased by 90 min.
Figure 7 The biodistribution of the [^68Ga]Ga-DOTA-Ahx-peptide in (a) normal and (b) tumor-bearing BALB/c mice. The data are described as %ID/g, calculated at 30, 60, and 90 min after injection. The results are reported as mean ± SD (n = 3). (c) Tumor-to-organ ratio at 30, 60, and 90 min after IV injection. The uptake profile of (d) blood, (e) muscle, (f) liver, and (g) kidneys in comparison with the tumor from 15 to 90 min.

[4] = Ex vivo biodistribution in 4T1 tumor-bearing BALB/c mice, with blocking experiment; settings: female, mouse, total radioactivity, mean ± SD (n = 3); for tissue uptake at 0.5 h: 30 min p.i.; for tissue uptake at 1.5 h: 90 min p.i.
Protocol: as §1, §2
Comparative biodistribution studies were conducted in healthy (Figure 7a) and subcutaneously (s.c) tumor-bearing mice (Figure 7b). […] At 30 min, the highest accumulation of the radioactive compound was measured in the kidneys, which was 9.2 ± 0.53%ID/g and increased over time up to 90 min. […] Kidneys in tumor-bearing mice were also the critical organ with the highest radioactivity concentration at different time points (5.62 ± 0.31%ID/g at 30 min and 6.35 ± 0.54%ID/g at 90 min). This increasing profile has confirmed the quick washing-out of important organs such as the heart, lungs, liver, stomach, and intestine, which had relatively high radioactivity uptake. […]
Figure 7 The biodistribution of the [^68Ga]Ga-DOTA-Ahx-peptide in (a) normal and (b) tumor-bearing BALB/c mice. The data are described as %ID/g, calculated at 30, 60, and 90 min after injection. […]

[5] = blood, IV 840 kBq, read-out: blood uptake
[6] = kidney, iv, 840 kBq, read-out: kidney uptake

Structure (SMILES): CC(C)C[C@@H]1NC(=O)CNC(=O)[C@H](CC(=O)O)NC(=O)[C@H](CC(=O)O)NC(=O)[C@@H]2CCCN2C(=O)[C@@H]2CCCN2C(=O)[C@H](CCCNC(=N)N)NC(=O)[C@@H](NC(=O)[C@H](CCC(=O)O)NC(=O)CCCCCNC(=O)CN2CCN(CC(=O)O)CCN(CC(=O)O)CCN(CC(=O)O)CC2)CSSC[C@@H](C(=O)O)NC1=O [[^68Ga]Ga-DOTA-Ahx-VGB3, metal not drawn] ({DOTA-Ahx}-ECRPPDDGLC-OH; disulfide 2-10)
- log p (n-octanol/water partition coefficient) [1]: ~−2.17 ± 0.072
- IC50 [2]: ~867 nM
- tissue uptake at 1.5 h ([3]; blood, healthy mice, 90 min p.i., IV 840 kBq): 0.32 ± 0.036 %ID/g
- tissue uptake ([3]; intestine, read-out: intestine uptake): 5.07 ± 0.21 %ID/g
- tissue uptake at 0.5 h ([3]; kidney, 30 min p.i., read-out: kidney uptake): 9.2 ± 0.53 %ID/g
- tissue uptake at 0.5 h ([3]; liver, 30 p.i., read-out: liver uptake (maximum)): 4.41 ± 0.56 %ID/g
- tissue uptake ([3]; spleen, read-out: spleen uptake): 3.7 ± 0.29 %ID/g
- tissue uptake at 0.5 h [4, 5]: 1.4 ± 0.18 %ID/g
- tissue uptake at 1.5 h [4, 5]: 0.22 ± 0.06 %ID/g
- tissue uptake at 0.5 h [4, 6]: 5.62 ± 0.31 %ID/g
- tissue uptake at 1.5 h [4, 6]: 6.35 ± 0.54 %ID/g
